Measurements taken from patent publication US20230365705A1 (DYNAMICURE BIOTECHNOLOGY, published 2023).

Key:
[1] = target: T1, Human CD93 on cells (human CD93 expressing CHO cells; HUVEC, U937 and KG1a cells) (human, UniProt Q9NPY3 22-652); assay: flow cytometry blocking assay, CHO-hCD93 cells; blocked ligand hMMRN2 495-674 at 0.1 ug/ml
T1 construct: whole, on cells; also called hCD93 expressing CHO cells; hCD93 CHO cells
T1 sequence (looked up): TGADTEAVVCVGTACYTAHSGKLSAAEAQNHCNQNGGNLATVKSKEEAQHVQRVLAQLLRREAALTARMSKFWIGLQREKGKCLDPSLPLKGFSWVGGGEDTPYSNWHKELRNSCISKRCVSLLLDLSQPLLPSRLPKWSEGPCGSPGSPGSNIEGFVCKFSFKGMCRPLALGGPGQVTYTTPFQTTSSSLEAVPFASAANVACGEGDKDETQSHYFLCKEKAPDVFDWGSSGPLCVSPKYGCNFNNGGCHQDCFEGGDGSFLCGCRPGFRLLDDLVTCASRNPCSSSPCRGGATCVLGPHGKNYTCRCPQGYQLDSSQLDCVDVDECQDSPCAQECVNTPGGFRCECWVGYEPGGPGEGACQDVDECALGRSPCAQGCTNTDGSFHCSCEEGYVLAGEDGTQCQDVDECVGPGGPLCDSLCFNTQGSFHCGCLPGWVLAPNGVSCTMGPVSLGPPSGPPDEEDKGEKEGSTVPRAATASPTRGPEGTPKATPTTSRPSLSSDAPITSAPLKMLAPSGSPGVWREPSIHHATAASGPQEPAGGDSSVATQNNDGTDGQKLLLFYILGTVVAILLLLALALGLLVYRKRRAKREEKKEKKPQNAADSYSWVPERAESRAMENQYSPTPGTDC
Description: Then the cells were incubated with hMMRN2₄₉₅₋₆₇₄ at 0.1 μg/ml. […] Then the cells were washed with FACS buffer and incubated with APC-conjugated anti-His tag antibody at 1 μg/ml for 30 minutes at 4° C. After washing with FACS buffer twice, the samples were analyzed and data acquired in NovoCyte Flow. Recombinant his tagged […] was produced internally in Expi_HEK following routine procedure.

[2] = target: T1, Human CD93 on cells (human CD93 …); assay: flow cytometry blocking assay, CHO-hCD93 cells; blocked ligand hMMRN2 495-674 at 0.1 ug/ml, APC anti-His
Description: Then the cells were incubated with hMMRN2₄₉₅₋₆₇₄ at 0.1 μg/ml. […] After washing with FACS buffer twice, the samples were analyzed, and data acquired in NovoCyte Flow. Recombinant his tagged hMMRN2₄₉₅₋₆₇₄ was produced internally in E. Coli following routine procedure.

[3] = target: T2, Human CD93 recombinant protein (Sino Biological Inc, Catalog #12589-H08H) (human, UniProt Q9NPY3 22-580); assay: BLI (Octet QKe), biotinylated CD93 on streptavidin biosensors; table under the hCD93 panels
T2 construct: Biotinylated (EZ-LINK NHS-PEG4 biotin) in the BLI assays; also called hCD93; His-tagged human CD93
T2 sequence (looked up): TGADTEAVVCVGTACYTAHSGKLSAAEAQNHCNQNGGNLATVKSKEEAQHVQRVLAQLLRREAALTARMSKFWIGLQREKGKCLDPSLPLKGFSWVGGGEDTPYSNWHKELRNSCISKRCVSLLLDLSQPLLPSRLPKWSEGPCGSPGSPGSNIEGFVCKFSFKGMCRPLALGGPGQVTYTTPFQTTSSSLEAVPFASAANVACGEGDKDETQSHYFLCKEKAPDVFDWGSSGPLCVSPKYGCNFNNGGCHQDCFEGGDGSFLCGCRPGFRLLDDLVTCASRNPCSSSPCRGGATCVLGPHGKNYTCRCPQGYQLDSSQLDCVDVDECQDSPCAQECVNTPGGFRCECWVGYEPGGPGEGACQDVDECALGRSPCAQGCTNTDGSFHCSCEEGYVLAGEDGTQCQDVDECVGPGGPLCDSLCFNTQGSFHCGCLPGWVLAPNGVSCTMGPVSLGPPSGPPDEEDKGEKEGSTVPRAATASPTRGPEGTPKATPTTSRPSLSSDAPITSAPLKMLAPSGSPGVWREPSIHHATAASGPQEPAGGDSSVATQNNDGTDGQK
Description: The binding affinity of anti-CD93 antibodies were determined with bio-layer interferometry using Octet QKe (Fortebio). Human CD93 recombinant protein (Sino Biological Inc, Catalog #12589-H08H) or cynomolgus CD93 protein (made in-house) were biotinylated using EZ-LINK NHS-PEG4 biotin (Thermo Fisher Scientific). Streptavidin biosensors (Fortebio) were used to load biotinylated CD93 protein (300 seconds at 5 μg/ml). The baseline was stabilized for 60 seconds in a 1× kinetics buffer (Fortebio) before serially diluted anti-CD93 antibodies were allowed to associate for 300 seconds with captured protein. The sensors were dissociated in a 1× kinetics buffer for 600 seconds.

[4] = target: T2, Human CD93 recombinant protein (Sino …); assay: BLI (Octet QKe), biotinylated human CD93 on streptavidin biosensors; antibody stored 2 weeks at 40 C
Description: The binding affinity of anti-CD93 antibodies was determined with bio-layer interferometry using Octet QKe (Fortebio). […] Human CD93 recombinant protein (Sino Biological Inc, Catalog #12589-H08H) was biotinylated using EZ-LINK NHS-PEG4 biotin (Thermo Fisher Scientific). Streptavidin biosensors (Fortebio) were used to load biotinylated CD93 protein (300 seconds in 5 μg/ml). Baseline was stabilized for 60 seconds in 1× kinetics buffer (Fortebio) before anti-CD93 antibodies, at a serial dilution, were allowed to associate for 300 seconds with captured protein. Then the sensors were dissociated in 1× kinetics buffer for 600 seconds. […] (FIG. 42).

B1: h7F3 (humanized 7F3, VH3+VL3) (antibody, human IgG1, V domains shown)
VH: QVQLVQSGAEVKKPGASVKVSCKASGYTFTDYEMHWVRQAPGQGLEWMGGIDPETGDTAYNQNFKGRVTMTTDTSTSTAYMELRSLTSDDTAVYYCTNYGNLYYYAMDYWGQGTSVTVSS
VL: EIVLTQSPSSLSASVGDRVTITCRASSSVSSSYLHWYQQKPGKAPKLLIYSTSNLAFGVPSRFSGSGSGTSYTFTISSLQPEDIATYYCQQYSGYPLTFGSGTKLEIK
notes: also called humanized 7F3-hIgG1
IC50 [1]: 0.133 nM
IC50 [2]: 0.173 nM

B2: 16E4 (hybridoma) (antibody, IgG2a, V domains shown)
VH: QVQLQQPGAELVKPGASVKLSCKASGYTFTSYWMHWVKQRPGQGLEWIGEIDPSASYTYYNQKFKGKATLTVDKSSSTAYMQLSSLTSEDSAVYYCARSVYYGNKYFDVWGAGTTVTVSS
VL: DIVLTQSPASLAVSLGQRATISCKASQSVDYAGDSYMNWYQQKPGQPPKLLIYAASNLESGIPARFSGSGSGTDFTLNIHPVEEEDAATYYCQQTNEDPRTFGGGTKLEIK
notes: also called 16E4 mAb; 16E4 mIgG2a
Kd [3]: 0.447 nM
koff [3]: 0.000429 s⁻¹
kon [3]: 960000 M⁻¹ s⁻¹

B3: h16E4 (humanized 16E4, VH4+VL6) (antibody, V domains shown)
VH: QVQLVQSGAEVKKPGASVKVSCKASGYTFTSYWMHWVRQAPGQGLEWMGEIDPSASYTYYNQKFKGRVTMTRDKSSSTVYMELSSLTSEDSAVYYCARSVYYGNKYFDVWGAGTTVTVSS
VL: DIQMTQSPSTLSASVGDRVTITCKASQSVDYAGDSYMNWYQQKPGKAPKLLIYAASNLESGVPSRFSGSGSGTEFTLTISSLQPDDFATYYCQQTNEDPRTFGGGTKLEIK
notes: Detected with anti-human IgG, so a human Fc
Kd [4]: 0.0204 nM
koff [4]: 5.08e-06 s⁻¹
kon [4]: 249000 M⁻¹ s⁻¹
